{"source": "patent US20220281949A1", "target": "DR1-restricted TCR HA1.7", "test": "flow cytometry: HA1.7-transduced primary CD4+ T cells stained with PE wild-type DR1 dextramer and anti-CD4"}
{"substance": "wild-type DR1 dextramer specific to Flu-HA306-318 (peptide-MHC)", "values": [{"measurement": "percent of cells in the dextramer+ CD4+ quadrant", "result": 30.4, "unit": "%"}]}
